Experimental findings from the RNAGym collection of RNA variant scans (doi:10.7554/elife.80360) are described below.

B1: HDV Ribozyme (parent)
chain: GGCCGGCAUGGUCCCAGCCUCCUCGCUGGCGCCGGCUGGGCAACAUUCCGAGGGGACCGUCCCCUCGGUAAUGGCGAAUGGGACCCA

This data set covers variants of B1. Briefly: self-cleavage, relative activity (ratio to wild type); higher = more cleavage; co-transcriptional.
In the case of GGCCGGCAUGGUCCCAGCAUCCUCGCUGGCGCCGGCUGGGCAACAUUCCGAGGGGACCGUCCCCUCGGUAAUGGAGAAUGGGACCCA [C19A C75A], the self-cleavage was 0.185.

Consider GGCCGGCAUGGUCCCAGCAUCCUCGCUGGCGCCGGCUGGGCAACAUUCCGAGGGGACCGUCACCUCGGUAAUGGCGAAUGGGACCCA [C19A C62A], for which the self-cleavage was 0.0536. With GGCCGGCAUGGUCCCAGUCUCCUCGCUGGCGCCGGCUGGGCAACAUUCCGAGGGGACCGCCCCCUCGGUAAUGGCGAAUGGGACCCA [C18U U60C] the figure was 0.7; with GGCCGGCAUGGUCCCAGCAUCCUCGCUGGCGCCGGCUGGGCAACAUUCCGAGGGGACCGUACCCUCGGUAAUGGCGAAUGGGACCCA [C19A C61A], 0.12; with GGCCGGCAUGGUCCCAGCAUCCUCGCUGGCGCCGGCUGGGCAACAUUCCGAGGGGACCGUGCCCUCGGUAAUGGCGAAUGGGACCCA [C19A C61G], 0.095. For GGCCGGCAUGGUCCCAGCAUCCUCGCUGGCGCCGGCUGGGCAACAUUCCGAGGGGACCGUUCCCUCGGUAAUGGCGAAUGGGACCCA [C19A C61U] the value was 0.0671; for GGCCGGCAUGGUCCCAGCAUCCUCGCUGGCGCCGGCUGGGCUACAUUCCGAGGGGACCGUCCCCUCGGUAAUGGCGAAUGGGACCCA [C19A A42U], 0.0216; for GGCCGGCAUGGUCCCAGCAUCCUCGCUGGCGCCGGCUGGGCCACAUUCCGAGGGGACCGUCCCCUCGGUAAUGGCGAAUGGGACCCA [C19A A42C], 0.026. For GGCCGGCAUGGUCCCAGUCUCCUCGCUGGCGCCGGCUGGGCAACAUUCCGAGGGGACCGUCCCCUCGGUAAUGGCGAACGGGACCCA [C18U U79C] the value was 0.168.

Turning to GGCCGGCAUGGUCCCAGUCUCCUCGCUGGCGCCGGCUGGGCAACAUUCCGAGGGGACCGUCCCCUCGGUAAUGGCGAAAGGGACCCA [C18U U79A], the self-cleavage was 0.178. GGCCGGCAUGGUCCCAGCAUCCUGGCUGGCGCCGGCUGGGCAACAUUCCGAGGGGACCGUCCCCUCGGUAAUGGCGAAUGGGACCCA [C19A C24G]: the self-cleavage was determined as 0.158. With GGCCGGCAUGGUCCCAGCAUCCUCGCUGGCGCCGGCUGGGCAACAUUCCGAGGGGACCGUCCCCUCGGUAAUGGCGUAUGGGACCCA [C19A A77U] the figure was 0.145; with GGCCGGCAUGGUCCCAGCAUCCUCGCUGGCGCCGGCUGGGCAACAUUCCGAGGGGACCGUCCCCUCGGUAAUGGCGCAUGGGACCCA [C19A A77C], 0.0941; with GGCCGGCAUGGUCCCAGCAUACUCGCUGGCGCCGGCUGGGCAACAUUCCGAGGGGACCGUCCCCUCGGUAAUGGCGAAUGGGACCCA [C19A C21A], 0.142. For GGCCGGCAUGGUCCCAGCAUGCUCGCUGGCGCCGGCUGGGCAACAUUCCGAGGGGACCGUCCCCUCGGUAAUGGCGAAUGGGACCCA [C19A C21G] the value was 0.166. Regarding GGCCGGCAUGGUCCCAGCAUCCUCGCUGGCGCCGGCUGGGCAACAUUCCGAGGGGACCGUCCCCUCGGUAAUGGCGAAUGGGGCCCA [C19A A83G], the self-cleavage stood at 0.122. For GGCCGGCAUGGUCCCAGCAUCCUCGCUGGGGCCGGCUGGGCAACAUUCCGAGGGGACCGUCCCCUCGGUAAUGGCGAAUGGGACCCA [C19A C30G] the value was 0.0437; for GGCCGGCAUGGUCCCAGCAUCCUCGCUGGUGCCGGCUGGGCAACAUUCCGAGGGGACCGUCCCCUCGGUAAUGGCGAAUGGGACCCA [C19A C30U], 0.0623.

On to GGCCGGCAUGGUCCCAGCAUCCUCGCUGGCGCCGGCUGGGCAACAUUCCGAGGGGACCGUCCCCUCGGUAAUGGCGAAUGGGACUCA [C19A C85U], for which the self-cleavage came to 0.166. For GGCCGGCAUGGUCCCAGCAUCCUCGCUGGCGCCGGCUGGGCAACAUUCCGAGGGGACGGUCCCCUCGGUAAUGGCGAAUGGGACCCA [C19A C58G], the self-cleavage was 0.0519. Take GGCCGGCAUGGUCCCAGCAUCCUCGCUGGCGCCGGCUGGGCAACAUUCCGAGGGGACUGUCCCCUCGGUAAUGGCGAAUGGGACCCA [C19A C58U]: the self-cleavage amounted to 0.168. With GGCCGGCAUGGUCCCAGCAUCCUCGCUGGCGCCGGCUGGGCAACAUUCCGAGGGGACCGUCCCCUCGGUAAUGGCGAAUGGGACCCA [C19A] the figure was 0.123; with GGCCGGCAUGGUCCCAGCAUCCUCGCUGGCGCCGGCUGGGCAAUAUUCCGAGGGGACCGUCCCCUCGGUAAUGGCGAAUGGGACCCA [C19A C44U], 0.0191. With GGCCGGCAUGGUCCCAGCAUCCUCGCUGGCGCCGGCUGGGCAAAAUUCCGAGGGGACCGUCCCCUCGGUAAUGGCGAAUGGGACCCA [C19A C44A] the figure was 0.149. With GGCCGGCAUGGUCCCAGCAUCCUCGCUGGCGCCGGCUGGGCAACAUUCCGAGGGGACCGUCCCCUCGGUCAUGGCGAAUGGGACCCA [C19A A70C] the figure was 0.0573; with GGCCGGCAUGGUCCCAGCAUCCUCGCUGGCGCCGGCUGGGCAACAUUCCGAGGGGACCGUCCCCUCGGUUAUGGCGAAUGGGACCCA [C19A A70U], 0.277; with GGCCGGCAUGGUCCCAGCAUCCUCGCUGGCGCCGGCUGGGCAACAUUCCGAGGGGACCGUCCCCUCGGUGAUGGCGAAUGGGACCCA [C19A A70G], 0.136.

For GGCCGGCAUGGUCCCAGCAUCCUCGGUGGCGCCGGCUGGGCAACAUUCCGAGGGGACCGUCCCCUCGGUAAUGGCGAAUGGGACCCA [C19A C26G], the self-cleavage worked out at 0.312. For GGCCGGCAUGGUCCCAGCAUCCUCGAUGGCGCCGGCUGGGCAACAUUCCGAGGGGACCGUCCCCUCGGUAAUGGCGAAUGGGACCCA [C19A C26A] the value was 0.462. As to GGCCGGCAUGGUCCCAGCAUCCUCGUUGGCGCCGGCUGGGCAACAUUCCGAGGGGACCGUCCCCUCGGUAAUGGCGAAUGGGACCCA [C19A C26U], the self-cleavage was determined as 0.929. With GGCCGGCAUGGUCCCAGCAUCCUCGCUGGCGCCGGAUGGGCAACAUUCCGAGGGGACCGUCCCCUCGGUAAUGGCGAAUGGGACCCA [C19A C36A] the figure was 0.119. For GGCCGGCAUGGUCCCAGUCUCCUCGCUGGCGCCGGCUGGGCAACACUCCGAGGGGACCGUCCCCUCGGUAAUGGCGAAUGGGACCCA [C18U U46C] the value was 0.374.
